# Bridges are numbered along the chain shown (N, C = ends). Where no end group is shown, it is not given here. [ ]: non-standard residue; d: D form. The star is where a group is joined. Palmitoyl = CCCCCCCCCCCCCCCC(=O)*; Cha = N[C@@H](CC1CCCCC1)C(=O)O; pGlu = O=C1CC[C@@H](C(=O)O)N1; NHPhenethyl = c1ccc(CCN*)cc1; Lauroyl = CCCCCCCCCCCC(=O)*; Nle = CCCC[C@H](N)C(=O)O; Api = NC1(C(=O)O)CCNCC1; AEEA = NCCOCCOCC(=O)O; Aib = CC(C)(N)C(=O)O; Inp = O=C(O)C1CCNCC1
# T1: human APJ receptor (hAPJ) (human, UniProt P35414 1-380)
# T1 sequence (looked up): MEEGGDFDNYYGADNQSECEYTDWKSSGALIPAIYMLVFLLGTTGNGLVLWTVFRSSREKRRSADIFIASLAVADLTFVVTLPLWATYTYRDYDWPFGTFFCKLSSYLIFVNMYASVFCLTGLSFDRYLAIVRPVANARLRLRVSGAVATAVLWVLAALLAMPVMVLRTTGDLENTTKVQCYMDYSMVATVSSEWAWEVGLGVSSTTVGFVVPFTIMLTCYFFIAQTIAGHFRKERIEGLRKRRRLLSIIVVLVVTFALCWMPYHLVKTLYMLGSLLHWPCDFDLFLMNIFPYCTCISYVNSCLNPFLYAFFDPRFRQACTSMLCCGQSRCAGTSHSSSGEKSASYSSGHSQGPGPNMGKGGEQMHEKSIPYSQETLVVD
# B1: Example 22: pE-R-P-R-L-C-H-K-G-P-Nle-C-K(Palmitoyl)-OH (peptide)
# peptide: [pGlu]RPRLCHKGP[Nle]CK(Palmitoyl)-OH
# modifications: disulfide 6-12
# SMILES: CCCCCCCCCCCCCCCC(=O)NCCCC[C@H](NC(=O)[C@@H]1CSSC[C@H](NC(=O)[C@H](CC(C)C)NC(=O)[C@H](CCCNC(=N)N)NC(=O)[C@@H]2CCCN2C(=O)[C@H](CCCNC(=N)N)NC(=O)[C@@H]2CCC(=O)N2)C(=O)N[C@@H](Cc2c[nH]cn2)C(=O)N[C@@H](CCCCN)C(=O)NCC(=O)N2CCC[C@H]2C(=O)N[C@@H](CCCC)C(=O)N1)C(=O)O
# B2: Example 19: pE-R-P-R-L-C-H-F-G-P-Nle-C-Phenethylamine (peptide)
# peptide: [pGlu]RPRLCHFGP[Nle]C-NHPhenethyl
# modifications: disulfide 6-12
# SMILES: CCCC[C@@H]1NC(=O)[C@@H]2CCCN2C(=O)CNC(=O)[C@H](Cc2ccccc2)NC(=O)[C@H](Cc2c[nH]cn2)NC(=O)[C@@H](NC(=O)[C@H](CC(C)C)NC(=O)[C@H](CCCNC(=N)N)NC(=O)[C@@H]2CCCN2C(=O)[C@H](CCCNC(=N)N)NC(=O)[C@@H]2CCC(=O)N2)CSSC[C@@H](C(=O)NCCc2ccccc2)NC1=O
# B3: Example 15: pE-R-P-R-L-C-F-K-G-P-Nle-C-F-OH (peptide)
# peptide: [pGlu]RPRLCFKGP[Nle]CF-OH
# modifications: disulfide 6-12
# SMILES: CCCC[C@@H]1NC(=O)[C@@H]2CCCN2C(=O)CNC(=O)[C@H](CCCCN)NC(=O)[C@H](Cc2ccccc2)NC(=O)[C@@H](NC(=O)[C@H](CC(C)C)NC(=O)[C@H](CCCNC(=N)N)NC(=O)[C@@H]2CCCN2C(=O)[C@H](CCCNC(=N)N)NC(=O)[C@@H]2CCC(=O)N2)CSSC[C@@H](C(=O)N[C@@H](Cc2ccccc2)C(=O)O)NC1=O
# B4: Example 1: pE-R-P-R-L-K-H-F-G-P-Nle-D-Phenethylamine (peptide)
# peptide: [pGlu]RPRLKHFGP[Nle]D-NHPhenethyl
# modifications: lactam 6-12
# SMILES: CCCC[C@@H]1NC(=O)[C@@H]2CCCN2C(=O)CNC(=O)[C@H](Cc2ccccc2)NC(=O)[C@H](Cc2c[nH]cn2)NC(=O)[C@@H](NC(=O)[C@H](CC(C)C)NC(=O)[C@H](CCCNC(=N)N)NC(=O)[C@@H]2CCCN2C(=O)[C@H](CCCNC(=N)N)NC(=O)[C@@H]2CCC(=O)N2)CCCCNC(=O)C[C@@H](C(=O)NCCc2ccccc2)NC1=O
# B5: Example 25: Lauroyl-O2Oc-Q-R-P-R-L-C-H-K-G-P-Nle-C-F-OH (peptide)
# peptide: Lauroyl-[AEEA]QRPRLCHKGP[Nle]CF-OH
# modifications: disulfide 7-13
# SMILES: CCCCCCCCCCCC(=O)NCCOCCOCC(=O)N[C@@H](CCC(N)=O)C(=O)N[C@@H](CCCNC(=N)N)C(=O)N1CCC[C@H]1C(=O)N[C@@H](CCCNC(=N)N)C(=O)N[C@@H](CC(C)C)C(=O)N[C@H]1CSSC[C@@H](C(=O)N[C@@H](Cc2ccccc2)C(=O)O)NC(=O)[C@H](CCCC)NC(=O)[C@@H]2CCCN2C(=O)CNC(=O)[C@H](CCCCN)NC(=O)[C@H](Cc2c[nH]cn2)NC1=O
# B6: Example 18: H-Isn-R-P-R-L-C-H-K-G-P-Nle-C-F-OH (peptide)
# peptide: H-[Inp]RPRLCHKGP[Nle]CF-OH
# modifications: disulfide 6-12
# SMILES: CCCC[C@@H]1NC(=O)[C@@H]2CCCN2C(=O)CNC(=O)[C@H](CCCCN)NC(=O)[C@H](Cc2c[nH]cn2)NC(=O)[C@@H](NC(=O)[C@H](CC(C)C)NC(=O)[C@H](CCCNC(=N)N)NC(=O)[C@@H]2CCCN2C(=O)[C@H](CCCNC(=N)N)NC(=O)C2CCNCC2)CSSC[C@@H](C(=O)N[C@@H](Cc2ccccc2)C(=O)O)NC1=O
# B7: Example 11: p-Isn-R-P-R-L-C-Aib-K-G-P-Nle-C-f-OH (peptide)
# peptide: [Inp]RPRLC[Aib]KGP[Nle]C[dF]-OH
# modifications: disulfide 6-12; N-terminus assumed
# SMILES: CCCC[C@@H]1NC(=O)[C@@H]2CCCN2C(=O)CNC(=O)[C@H](CCCCN)NC(=O)C(C)(C)NC(=O)[C@@H](NC(=O)[C@H](CC(C)C)NC(=O)[C@H](CCCNC(=N)N)NC(=O)[C@@H]2CCCN2C(=O)[C@H](CCCNC(=N)N)NC(=O)C2CCNCC2)CSSC[C@@H](C(=O)N[C@H](Cc2ccccc2)C(=O)O)NC1=O
# B8: Example 16: H-R-P-R-L-C-H-K-G-P-Nle-C-F-OH (peptide)
# peptide: H-RPRLCHKGP[Nle]CF-OH
# modifications: disulfide 5-11
# SMILES: CCCC[C@@H]1NC(=O)[C@@H]2CCCN2C(=O)CNC(=O)[C@H](CCCCN)NC(=O)[C@H](Cc2c[nH]cn2)NC(=O)[C@@H](NC(=O)[C@H](CC(C)C)NC(=O)[C@H](CCCNC(=N)N)NC(=O)[C@@H]2CCCN2C(=O)[C@@H](N)CCCNC(=N)N)CSSC[C@@H](C(=O)N[C@@H](Cc2ccccc2)C(=O)O)NC1=O
# B9: Example 10: pE-R-P-R-L-C-Aib-K-G-P-Nle-C-f-OH (peptide)
# peptide: [pGlu]RPRLC[Aib]KGP[Nle]C[dF]-OH
# modifications: disulfide 6-12
# SMILES: CCCC[C@@H]1NC(=O)[C@@H]2CCCN2C(=O)CNC(=O)[C@H](CCCCN)NC(=O)C(C)(C)NC(=O)[C@@H](NC(=O)[C@H](CC(C)C)NC(=O)[C@H](CCCNC(=N)N)NC(=O)[C@@H]2CCCN2C(=O)[C@H](CCCNC(=N)N)NC(=O)[C@@H]2CCC(=O)N2)CSSC[C@@H](C(=O)N[C@H](Cc2ccccc2)C(=O)O)NC1=O
# B10: Example 14: pE-R-P-R-Cha-C-H-K-G-P-Cha-C-F-OH (peptide)
# peptide: [pGlu]RPR[Cha]CHKGP[Cha]CF-OH
# modifications: disulfide 6-12
# SMILES: N=C(N)NCCC[C@H](NC(=O)[C@@H]1CCCN1C(=O)[C@H](CCCNC(=N)N)NC(=O)[C@@H]1CCC(=O)N1)C(=O)N[C@@H](CC1CCCCC1)C(=O)N[C@H]1CSSC[C@@H](C(=O)N[C@@H](Cc2ccccc2)C(=O)O)NC(=O)[C@H](CC2CCCCC2)NC(=O)[C@@H]2CCCN2C(=O)CNC(=O)[C@H](CCCCN)NC(=O)[C@H](Cc2c[nH]cn2)NC1=O
# B11: Example 17: H-R-R-P-R-L-C-H-K-G-P-Nle-C-F-OH (peptide)
# peptide: H-RRPRLCHKGP[Nle]CF-OH
# modifications: disulfide 6-12
# SMILES: CCCC[C@@H]1NC(=O)[C@@H]2CCCN2C(=O)CNC(=O)[C@H](CCCCN)NC(=O)[C@H](Cc2c[nH]cn2)NC(=O)[C@@H](NC(=O)[C@H](CC(C)C)NC(=O)[C@H](CCCNC(=N)N)NC(=O)[C@@H]2CCCN2C(=O)[C@H](CCCNC(=N)N)NC(=O)[C@@H](N)CCCNC(=N)N)CSSC[C@@H](C(=O)N[C@@H](Cc2ccccc2)C(=O)O)NC1=O
# B12: Example 20: pE-R-P-R-L-C-H-K-Aib-P-Nle-C-F-OH (peptide)
# peptide: [pGlu]RPRLCHK[Aib]P[Nle]CF-OH
# modifications: disulfide 6-12
# SMILES: CCCC[C@@H]1NC(=O)[C@@H]2CCCN2C(=O)C(C)(C)NC(=O)[C@H](CCCCN)NC(=O)[C@H](Cc2c[nH]cn2)NC(=O)[C@@H](NC(=O)[C@H](CC(C)C)NC(=O)[C@H](CCCNC(=N)N)NC(=O)[C@@H]2CCCN2C(=O)[C@H](CCCNC(=N)N)NC(=O)[C@@H]2CCC(=O)N2)CSSC[C@@H](C(=O)N[C@@H](Cc2ccccc2)C(=O)O)NC1=O
# B13: Example 23: pE-R-P-R-L-C-K(Palmitoyl)-K-G-P-Nle-C-F-OH (peptide)
# peptide: [pGlu]RPRLCK(Palmitoyl)KGP[Nle]CF-OH
# modifications: disulfide 6-12
# SMILES: CCCCCCCCCCCCCCCC(=O)NCCCC[C@@H]1NC(=O)[C@@H](NC(=O)[C@H](CC(C)C)NC(=O)[C@H](CCCNC(=N)N)NC(=O)[C@@H]2CCCN2C(=O)[C@H](CCCNC(=N)N)NC(=O)[C@@H]2CCC(=O)N2)CSSC[C@@H](C(=O)N[C@@H](Cc2ccccc2)C(=O)O)NC(=O)[C@H](CCCC)NC(=O)[C@@H]2CCCN2C(=O)CNC(=O)[C@H](CCCCN)NC1=O
# B14: Example 13: pE-R-P-R-L-C-H-K-G-P-Nle-C-f-OH (peptide)
# peptide: [pGlu]RPRLCHKGP[Nle]C[dF]-OH
# modifications: disulfide 6-12
# SMILES: CCCC[C@@H]1NC(=O)[C@@H]2CCCN2C(=O)CNC(=O)[C@H](CCCCN)NC(=O)[C@H](Cc2c[nH]cn2)NC(=O)[C@@H](NC(=O)[C@H](CC(C)C)NC(=O)[C@H](CCCNC(=N)N)NC(=O)[C@@H]2CCCN2C(=O)[C@H](CCCNC(=N)N)NC(=O)[C@@H]2CCC(=O)N2)CSSC[C@@H](C(=O)N[C@H](Cc2ccccc2)C(=O)O)NC1=O
# B15: Example 2: pE-R-P-R-L-K-H-F-G-P-Nle-E-Phenethylamine (peptide)
# peptide: [pGlu]RPRLKHFGP[Nle]E
# modifications: lactam 6-12 (inferred); not fully specified (C-terminus); printed as pE-R-P-R-L-K-H-F-G-P-Nle-E-Phenethylamine
# B16: Example 24: Palmitoyl-O2Oc-Q-R-P-R-L-C-H-K-G-P-Nle-C-F-OH (peptide)
# peptide: Palmitoyl-[AEEA]QRPRLCHKGP[Nle]CF-OH
# modifications: disulfide 7-13
# SMILES: CCCCCCCCCCCCCCCC(=O)NCCOCCOCC(=O)N[C@@H](CCC(N)=O)C(=O)N[C@@H](CCCNC(=N)N)C(=O)N1CCC[C@H]1C(=O)N[C@@H](CCCNC(=N)N)C(=O)N[C@@H](CC(C)C)C(=O)N[C@H]1CSSC[C@@H](C(=O)N[C@@H](Cc2ccccc2)C(=O)O)NC(=O)[C@H](CCCC)NC(=O)[C@@H]2CCCN2C(=O)CNC(=O)[C@H](CCCCN)NC(=O)[C@H](Cc2c[nH]cn2)NC1=O
# B17: Example 21: pE-R-P-R-L-C-H-(4-NH-Isn)-G-P-Nle-C-F-OH (peptide)
# peptide: [pGlu]RPRLCH[Api]GP[Nle]CF-OH
# modifications: disulfide 6-12
# SMILES: CCCC[C@@H]1NC(=O)[C@@H]2CCCN2C(=O)CNC(=O)C2(CCNCC2)NC(=O)[C@H](Cc2c[nH]cn2)NC(=O)[C@@H](NC(=O)[C@H](CC(C)C)NC(=O)[C@H](CCCNC(=N)N)NC(=O)[C@@H]2CCCN2C(=O)[C@H](CCCNC(=N)N)NC(=O)[C@@H]2CCC(=O)N2)CSSC[C@@H](C(=O)N[C@@H](Cc2ccccc2)C(=O)O)NC1=O
# B18: Example 12: pE-R-P-R-L-C-H-K-G-P-Nle-C-Phenethylamine (peptide)
# peptide: [pGlu]RPRLCHKGP[Nle]C-NHPhenethyl
# modifications: disulfide 6-12
# Molecular target: T1, human APJ receptor (hAPJ)
# Assay: cell-based or functional assay
row,Binder,hAPJ Ca2+ Flux EC50
1,B1,42 nM
2,B2,8.46 nM
3,B3,3.53 nM
4,B4,90.1 nM
5,B5,24.5 nM
6,B6,1.62 nM
7,B7,3.52 nM
8,B8,1.43 nM
9,B9,2.54 nM
10,B10,8.83 nM
11,B11,3.29 nM
12,B12,173 nM
13,B13,52.4 nM
14,B14,2.26 nM
15,B15,133 nM
16,B16,32.6 nM
17,B17,75.8 nM
18,B18,2.07 nM
